According to US20180201658A1 (MIT, published 2018):
Blank lines part the entries; values can stand above or below the binder they belong to.

Assays:
human Bcl-xL [1] = molecular target: T1, human Bcl-xL (human, UniProt Q07817 1-209); assay: fluorescence anisotropy (FIG. 1)
T1 construct: Also used for the Bcl-xL of MDA-MB-231 cells in the functional rows

human Bcl-2 [2] = molecular target: T2, human Bcl-2 (human, UniProt P10415 1-217, limits assumed); assay: fluorescence anisotropy (FIG. 1)
T2 construct: Also used for the human Bcl-2 overexpressed in Bcl-2/Myc 2924 cells in the functional rows

human Bcl-w = molecular target: T3, human Bcl-w (human, UniProt Q92843 1-164, limits assumed); assay: fluorescence anisotropy (FIG. 1)
T3 sequence (looked up): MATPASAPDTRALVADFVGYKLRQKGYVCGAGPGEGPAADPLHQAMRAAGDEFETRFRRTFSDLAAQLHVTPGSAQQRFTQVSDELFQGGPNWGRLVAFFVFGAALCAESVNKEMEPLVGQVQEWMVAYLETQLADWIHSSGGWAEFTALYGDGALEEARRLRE

human Bfl-1 = molecular target: T4, human Bfl-1 (human, UniProt Q16548 1-151, limits assumed); assay: fluorescence anisotropy (FIG. 1)
T4 construct: Also used for the Bfl-1 of Pfeiffer cells in the functional rows
T4 sequence (looked up): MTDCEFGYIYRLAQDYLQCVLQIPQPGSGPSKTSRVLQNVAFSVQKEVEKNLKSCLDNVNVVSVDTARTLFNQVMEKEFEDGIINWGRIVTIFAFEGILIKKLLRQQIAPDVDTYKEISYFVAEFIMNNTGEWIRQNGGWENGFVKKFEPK

murine Mcl-1 = murine Mcl-1 (murine, UniProt P97287 1-331, limits assumed); assay: cell-based or functional assay
human Bcl-xL [3] = molecular target: T1, human Bcl-xL; assay: cell-based or functional assay
human Bcl-2 [4] = molecular target: T2, human Bcl-2; assay: cell-based or functional assay

T1 sequence (Q07817 1-209): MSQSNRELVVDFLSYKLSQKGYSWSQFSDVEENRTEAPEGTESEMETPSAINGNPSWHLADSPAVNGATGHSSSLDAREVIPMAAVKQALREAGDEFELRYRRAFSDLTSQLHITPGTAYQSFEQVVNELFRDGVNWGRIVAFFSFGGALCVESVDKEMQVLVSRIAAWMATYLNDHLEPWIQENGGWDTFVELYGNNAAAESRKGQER
T2 sequence (P10415 1-217 limits assumed): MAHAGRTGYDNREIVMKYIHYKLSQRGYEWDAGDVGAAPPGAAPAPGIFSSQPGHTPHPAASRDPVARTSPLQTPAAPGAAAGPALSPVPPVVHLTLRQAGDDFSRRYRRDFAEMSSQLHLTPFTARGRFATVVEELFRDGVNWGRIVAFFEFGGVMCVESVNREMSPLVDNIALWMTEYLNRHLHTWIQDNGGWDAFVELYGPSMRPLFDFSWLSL
murine Mcl-1, sequence (P97287 whole entry): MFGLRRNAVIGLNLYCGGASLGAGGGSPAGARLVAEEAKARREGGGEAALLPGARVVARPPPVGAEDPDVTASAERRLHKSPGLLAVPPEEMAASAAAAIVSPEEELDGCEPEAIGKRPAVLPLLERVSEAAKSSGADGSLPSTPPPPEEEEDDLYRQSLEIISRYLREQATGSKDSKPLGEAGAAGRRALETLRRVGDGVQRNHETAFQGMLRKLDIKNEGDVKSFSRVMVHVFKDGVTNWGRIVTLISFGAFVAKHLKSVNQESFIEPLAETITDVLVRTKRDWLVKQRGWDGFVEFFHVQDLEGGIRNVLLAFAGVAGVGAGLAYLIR

Binder: RPEIWITQELRRIGDEFNAYYAR (Bim BH3 point mutant) [Bim_A2eT]
fold reduction in binding relative to Bim (human Bcl-xL [1]): 6 fold | fold reduction in binding relative to Bim (human Bcl-2 [2]): > 20 fold | fold reduction in binding relative to Bim (human Bcl-w): > 20 fold | fold reduction in binding relative to Bim (human Bfl-1): > 20 fold

Binder: RPEIWITQELRRIGDEINAYYAR [Bim_A2eT_F4aI]
fold decrease in binding relative to Bim_A2eT (human Bcl-xL [1]): 6 fold | fold decrease in binding relative to Bim_A2eT (human Bcl-2 [2]): 3 fold

Binder: RPEIWITQELRRLGDEFNAYYAR [Bim_A2eT_I3dL]
fold reduction in binding relative to Bim_A2eT (human Bfl-1): 4 fold

Second part, the binder after the results:

fold reduction in binding relative to Bim_A2eT (human Bcl-xL [1]): ~4 fold | fold reduction in binding relative to Bim_A2eT (human Bcl-2 [2]): ~4 fold | fold reduction in binding relative to Bim_A2eT (human Bcl-w): ~4 fold | fold reduction in binding relative to Bim_A2eT (human Bfl-1): ~4 fold
Binder: RPEIWMTQELRRIGDEFNAYYAR [Bim_A2eT_I2dM]

EC50 of mitochondrial depolarization, BH3 profiling, Mcl-1/Myc 2640 cells (murine Mcl-1): 0.07 µM
Binder: RPEIWMTQGLRRLGDEINAYYAR [MS1, unlabeled]

EC50 of mitochondrial depolarization, BH3 profiling, MDA-MB-231 cells (human Bcl-xL [3]): > 100 µM | EC50 of mitochondrial depolarization, BH3 profiling, Bcl-2-dependent line (human Bcl-2 [4]): > 100 µM
Binder: AELPPEFAAQLRKIGDKVYC [NoxaA BH3 peptide from murine Noxa, unlabeled]

EC50 of mitochondrial depolarization, BH3 profiling, MDA-MB-231 cells (human Bcl-xL [3]): > 100 µM | EC50 of mitochondrial depolarization, BH3 profiling, Bcl-2-dependent line (human Bcl-2 [4]): > 100 µM | EC50 of mitochondrial depolarization, BH3 profiling, Mcl-1/Myc 2640 cells (murine Mcl-1): 0.86 µM
Binder: RPEIWLTQHLQRLGDEINAYYAR [MS3 as used in BH3 profiling]
